Patent publication US7262177B2, “Conjugates of glycosylated/galactosylated peptide, bifunctional linker, and nucleotidic monomers/polymers, and related compositions and methods of use” (priority 2000, dated 2007)
Where two headings read alike, the source gives them in different places.

Legend:
alpha-fetoprotein (AFP) = experiment: Serum AFP levels in tumor-bearing nude mice; format: in vivo, human; conditions: for level of AFP: 15 mg/kg weekly
Description: Xenotransplanted tumors have been previously shown to be responsive to 5FU chemotherapy as assayed by direct physical measurement of the tumor (Houghton et al., Biochem. Pharmacol., 36, 1285-1289 (1987)), histological changes and biochemical measurements, such as alpha-fetoprotein (AFP) levels (Lemoine et al., Pathol. Biol. (Paris), 47, 903-910 (1999)) and thymidylate synthase levels (Peters et al., J. Clin Oncol., 12, 2035-2042 (1994)). The xenograft tumors in nude mice are a widely used model for tumor studies that allows for direct measurement of the growth of human tumors. Male CD-1 nude mice (6-8 weeks old, 20-22 g in weight) were used for these bioefficacy studies. An injection of 10^8 Hep G2 cells was made subcutaneously into the subcapsular region of each mouse. Mice were observed daily for tumor formation. After tumors emerged, they were measured twice a week in two dimensions with sliding calipers. When the tumors reached a weight of 100 mg in weight as determined by the formula: [(weight, mg)=(length (mm)×width (mm))^2/2], treatment was initiated (Geran et al., Cancer Chemother. Rep., 3, 51-61 (1972)). Initially, mice were treated with 10 mg/kg dose once/week for 8 weeks. Subsequently, separate cohorts of mice were treated with 15 mg/kg weekly for 8 weeks and finally 10 mg/kg twice weekly for 8 weeks. The impact of treatment upon tumor growth was judged by direct measurement as described above. In addition, tumor progression was tracked by serological measurements, such as AFP levels. AFP levels were assayed weekly following each injection. Blood was taken retro-orbitally from each mouse. AFP levels were assayed immunochemically, using kits supplied by Abbott Laboratories (Waukegan, Ill.) and based on the methods of Wang et al. (Cancer Res., 50, 869s-872s (1990)). Measurements of AFP levels were intended to complement direct physical measurement as an indicator of tumor progression. Generally, serum AFP levels behave as if they reflect tumor mass. […]

[1] = Serum stability of 35S labeled po 1-mer conjugate, PAGE analysis; format: in vitro ADME; conditions: human serum, 37° C.
Description: Studies were carried out at physiological conditions. The analyses were accomplished using reversed-phase HPLC and PAGE methods. The raw data are presented in table format (Tables 1, 2 and 3). The serum half-life calculated is t1/2=1/k (0.693), derived from the [A]=[A0]e^−kt, where [A0] is the original amount of substrate, [A] is the measured substrate level, t is time (min), and k is the first-order rate constant.
Reaction Conditions: 2 μl of human serum were added to 200,000 cpm of dry ^35S labeled po 1-mer conjugate. Radiolabeled conjugate was incubated at 37° C. in the presence of this serum for the allotted time periods (15 min, 30 min, 60 min, 120 min, 240 min). The reaction mixture was diluted with 2 μl of H2O, then 4 μl of loading buffer. The degradation pattern was observed through autoradiography of a 20% polyacylamide gel (0.75 mm) run at 800 V for 90 min. Bands were quantified through the use of a Fujix BAS 2000 Phosphorimager (Table 3).

[2] = Stability of 1-mer conjugates in RPMI 1640+10% FCS (PAGE); format: in vitro ADME; conditions: up to 8 hrs, PAGE analysis
Description: Initially, the stability of the two neoglycoconjugates was assessed in RPMI 1640+10% FCS. […] In terms of cellular uptake, the po-linked conjugate at a dose of 1 μM was taken up rapidly in a progressive manner by Hep G2 cells in vitro to the extent of 24.75 pmoles/10^6 cells at 480 min. The rate of cellular uptake was next analyzed with respect to the administered dose of the conjugate. […] This amount doubled within the next 30 min and peaked at 25 pmoles/million cells at 480 min. […] While the administration of 4 μM conjugate led to a linear increase of conjugate uptake with respect to time, the rate at which cellular uptake occurred upon the administration of 8 μM conjugate rose sharply at 120 min.

TS = target: T1, TS (Homo sapiens, UniProt P04818); experiment: TS activity in tumor of xenografted mice; format: in vivo, CD-1 nude mice; conditions: treated
T1 construct: from tissue; host or cells: subcutaneous Hep G2 xenograft tumour from CD-1 nude mice
T1 sequence (P04818 2-313 limits assumed): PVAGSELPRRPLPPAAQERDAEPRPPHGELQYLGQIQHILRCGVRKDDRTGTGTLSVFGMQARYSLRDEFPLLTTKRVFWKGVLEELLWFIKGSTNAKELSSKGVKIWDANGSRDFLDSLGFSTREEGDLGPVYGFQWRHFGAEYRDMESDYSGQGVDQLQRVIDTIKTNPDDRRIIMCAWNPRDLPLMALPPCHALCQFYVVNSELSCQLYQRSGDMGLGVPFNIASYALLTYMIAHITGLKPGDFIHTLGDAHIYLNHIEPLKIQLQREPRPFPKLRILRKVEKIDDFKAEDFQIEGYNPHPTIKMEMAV
Description: Initial effects of po 1-mer treatment were noticed after about 5 weeks. Overall, however, tumors continued to grow after this point, but at a slower rate than the control. For instance, at 8 weeks post po 1-mer treatment, the average tumor weight of xenografted human hepatomas in nude CD-1 mice was about 7 g, whereas the average tumor weight of the saline control was about 15 g. Histological analysis was performed after 8 weeks in order to compare the tumors of the control cohort with the tumors of po 1-mer-treated nude mice. […] This weight loss may then be due to the tumor burden, rather than the therapeutic treatment, and was continued through week 8.
After the treatment was completed, tumors were analyzed both histologically and for TS activity. […] Therefore, it can be deduced that increasing the dose of po 1-mer increased the efficacy without increasing systemic toxicity.
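For % injected dose in LIVER in this document: male CD-1 mice given radiolabeled test agent intravenously, organs removed at each time point and dissolved, radioactivity per organ measured by scintillation counting with efficiency correction.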

For `CC(=O)N[C@H]1[C@H](OCCCCCCNC(=O)CC[C@H](NC(=O)CC[C@H](NC(=O)[C@H](Cc2ccc(O)cc2)NC(=O)C2CCC(CN3C(=O)CC(SCCCCCCOP(=O)(O)OC[C@H]4O[C@@H](n5cc(F)c(=O)[nH]c5=O)C[C@@H]4O)C3=O)CC2)C(=O)NCCCCCCO[C@@H]2O[C@H](CO)[C@H](O)[C@H](O)[C@H]2NC(C)=O)C(=O)NCCCCCCO[C@@H]2O[C@H](CO)[C@H](O)[C@H](O)[C@H]2NC(C)=O)O[C@H](CO)[C@H](O)[C@@H]1O` (stereo partly drawn) [po 1-mer, YEE(ahGalNAc)3-SMCC-poFU], the AFP measurements (alpha-fetoprotein (AFP); 10 mg/kg twice weekly, week 6) was “below the limits of detection”, the “level of AFP” value (alpha-fetoprotein (AFP); after 3 weeks of treatment) was “less than 200 μg/ml” and the “level of AFP” value (alpha-fetoprotein (AFP); week 8) was “below the level of detection”. For the same molecule, the “Normalized Area” value ([1]; 0 min) was 0, the “Pixel Area” value ([1]; 0 min) was 42.57 and the “Standardized Area” value ([1]; 0 min) was 1. The “Normalized Area” value ([1]; 15 min) was 0.1486, the “Pixel Area” value ([1]; 15 min) was 57.43 and the “Standardized Area” value ([1]; 15 min) was 0.8514. For the same molecule, the “Normalized Area” value ([1]; 30 min) was 0.2404, the “Pixel Area” value ([1]; 30 min) was 66.61 and the “Standardized Area” value ([1]; 30 min) was 0.7596. For the same molecule, the “Normalized Area” value ([1]; 60 min) was 0.3435, the “Pixel Area” value ([1]; 60 min) was 76.92 and the “Standardized Area” value ([1]; 60 min) was 0.6565. For the same molecule, the “Normalized Area” value ([1]; 120 min) was 0.39, the “Pixel Area” value ([1]; 120 min) was 81.57 and the “Standardized Area” value ([1]; 120 min) was 0.61. The “Normalized Area” value ([1]; 240 min) was 0.3756, the “Pixel Area” value ([1]; 240 min) was 80.13 and the “Standardized Area” value ([1]; 240 min) was 0.6244. The “stability in media containing 10% FCS” value [2] was “stable”, the “TS activity, COUNTS/MG PROTEIN” value (TS; weekly 10 mg/kg) was 17641 counts/mg protein and the “TS activity, COUNTS/MG PROTEIN” value (TS; weekly 15 mg/kg) was 8591 counts/mg protein. For the same molecule, the “% injected dose in LIVER” value (15 MIN after tail vein i.v.) was “Fifty-seven”, the “% injected dose in LIVER” value (60 MIN after tail vein i.v.) was 25% and the “% injected dose in LIVER” value (480 MIN after tail vein i.v.) was “virtually no”.
